The values that follow come from patent publication US20230406961A1 (published 2023).

What all share (assay): SPR (Biacore)
For orientation: SPR reads the build-up and loss of mass on a sensor chip optically.

One assay addresses T1, endoglin (CD105) (UniProt P17813 26-586).
T1 chain: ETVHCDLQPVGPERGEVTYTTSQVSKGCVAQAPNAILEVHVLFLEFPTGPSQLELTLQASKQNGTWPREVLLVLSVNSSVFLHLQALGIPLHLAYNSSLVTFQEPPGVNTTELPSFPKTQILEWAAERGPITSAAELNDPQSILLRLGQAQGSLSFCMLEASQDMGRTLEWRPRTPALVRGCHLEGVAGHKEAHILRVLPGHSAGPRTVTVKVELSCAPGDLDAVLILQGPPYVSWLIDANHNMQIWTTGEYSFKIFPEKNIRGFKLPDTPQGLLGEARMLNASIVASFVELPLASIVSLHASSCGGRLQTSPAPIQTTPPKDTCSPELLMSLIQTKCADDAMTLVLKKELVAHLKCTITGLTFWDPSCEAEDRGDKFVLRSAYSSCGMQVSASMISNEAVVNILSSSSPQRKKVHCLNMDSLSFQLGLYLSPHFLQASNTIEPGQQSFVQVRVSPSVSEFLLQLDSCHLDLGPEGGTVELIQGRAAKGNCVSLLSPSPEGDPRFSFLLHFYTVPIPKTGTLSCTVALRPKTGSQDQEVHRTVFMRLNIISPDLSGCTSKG

In a further assay the target is Endoglin_23.
For another assay, the target named is Endoglin_10.

B1: endoglin antibody clone Kro22 (humanized AB clone Kro22.2 / Kro22.6) (antibody, V domains shown)
VH: QVQLVQSGAEVKKPGASVKVSCKASGYTFTSYWMHWVRQAPGQGLEWIGNIYPGSGSTFYDEKFKGRATLTVDTSISTAYMELSRLRSDDTAVYYCTRRNYVTGFDYWGQGTTVTVSS
VL: DIQLTQSPSFLSASVGDRVTITCKSSQSVLYSSNQKNYLAWYQQKPGKAPKLLIYWASTRESGVPSRFSGSGSGTEFTLTISSLQPEDFATYYCHQYLSSYTFGQGTKLEIK
By Kd is commonly meant the free concentration of one partner at which half of the binding sites on the other are occupied at equilibrium, for simple one-to-one binding. B1 returned an equilibrium dissociation constant (Kd) in the assay with endoglin (CD105) of 2.44 nM.

B2: Endoglin (receptor)
chain: ETVHCDLQPVGPERGEVTYTTSQVSKGCVAQAPNAILEVHVLFLEFPTGPSQLELTLQASKQNGTWPREVLLVLSVNSSVFLHLQALGIPLHLAYNSSLVTFQEPPGVNTTELPSFPKTQILEWAAERGPITSAAELNDPQSILLRLGQAQGSLSFCMLEASQDMGRTLEWRPRTPALVRGCHLEGVAGHKEAHILRVLPGHSAGPRTVTVKVELSCAPGDLDAVLILQGPPYVSWLIDANHNMQIWTTGEYSFKIFPEKNIRGFKLPDTPQGLLGEARMLNASIVASFVELPLASIVSLHASSCGGRLQTSPAPIQTTPPKDTCSPELLMSLIQTKCADDAMTLVLKKELVAHLKCTITGLTFWDPSCEAEDRGDKFVLRSAYSSCGMQVSASMISNEAVVNILSSSSPQRKKVHCLNMDSLSFQLGLYLSPHFLQASNTIEPGQQSFVQVRVSPSVSEFLLQLDSCHLDLGPEGGTVELIQGRAAKGNCVSLLSPSPEGDPRFSFLLHFYTVPIPKTGTLSCTVALRPKTGSQDQEVHRTVFMRLNIISPDLSGCTSKG
For B2, the results for the dissociation constant (Kd) in the assay with Endoglin_23 and with Endoglin_10 were 64 nM and 23.5 nM, respectively.
